Legend:
Assay in all cases: HLA class II competition binding assay
[1] = molecular target: HLA DRB1*0301 (human)
[2] = molecular target: HLA DRB1*1301 (human)
[3] = molecular target: HLA DRB1*1101 (human)
[4] = molecular target: HLA DRB1*0101 (human)
[5] = molecular target: HLA DRB1*0401 (human)
[6] = molecular target: HLA DRB1*0701 (human)
[7] = molecular target: HLA DRB1*1501 (human)

EEQYNSTYTVVSVLTVLHQD [SEQ ID NO 114]
IC50 [1]: 1570 nM
IC50 [2]: 1860 nM
IC50 [3]: 84 nM
IC50 [4]: 19 nM
IC50 [5]: 1210 nM
IC50 [6]: 115 nM
IC50 [7]: 2110 nM
